# Data from patent US20250352661A1 (MYTHIC THERAPEUTICS, published 2025).
# Changes are numbered by the printed parent chain.
# T1: LRRC15 on the surface of LRRC15+ cells (SAOS-2, U87MG) (UniProt Q8TF66 22-581, limits assumed)
# T1 sequence (looked up): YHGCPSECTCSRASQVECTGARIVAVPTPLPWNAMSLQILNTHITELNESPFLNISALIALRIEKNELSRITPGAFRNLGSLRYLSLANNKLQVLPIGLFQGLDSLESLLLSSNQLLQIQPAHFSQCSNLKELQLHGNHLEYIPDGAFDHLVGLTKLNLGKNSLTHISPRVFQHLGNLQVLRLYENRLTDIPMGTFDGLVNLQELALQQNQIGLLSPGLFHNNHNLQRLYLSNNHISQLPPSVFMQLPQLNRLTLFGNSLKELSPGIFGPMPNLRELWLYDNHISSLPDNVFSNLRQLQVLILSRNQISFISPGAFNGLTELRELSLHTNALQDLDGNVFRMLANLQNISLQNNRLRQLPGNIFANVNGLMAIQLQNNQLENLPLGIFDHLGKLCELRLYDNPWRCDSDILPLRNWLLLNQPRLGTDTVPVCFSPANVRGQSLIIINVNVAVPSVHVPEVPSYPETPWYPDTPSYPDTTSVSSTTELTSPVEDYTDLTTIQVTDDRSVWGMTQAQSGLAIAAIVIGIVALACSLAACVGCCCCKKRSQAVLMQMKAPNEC
# B1: MYT8417 (antibody, V domains shown)
# VH: EVQLVESGGGLVQPGGSLRLSCTASGLDFRRTNYICWVRQAPGKGLEWVGCIYIADVVHYYASWAKGRFTFSRDTSKNTVYLQMNSLRAEDTAVYYCARGADGGFVYGMDLWGQGTLVTVSS
# VL: EIVMTQSPSTLSASVGDRVIITCQASQSIGNYLSWYQQKPGKAPKRLIYSASTLPSGVPSRFSGSGSGAEFTLTISSLQPDDFATYYCQNNYWLAHYGHPFGQGTKLTVL
# B2: MYT8483 (antibody, IgG1, V domains shown)
# VH: EVQLVESGGGLVQPGGSLRLSCTASGFSFSGSYWICWVRQAPGKGLEWVGCINGGSLDITYYASWAKGRFTISRDTSKNTVYLQKTSLRAEDTAVYYCASDTSYTAYGNFYFNLWGQGTLVTVSS
# VL: EIVMTQSPSPLSASVGDRVIITCQSSQSVLNNNWLAWYQQKPGKAPKLLIYDASSLASGVPSRFSGSGSGAEFTLTISSLQPDDFATYYCQGEFSCGSADCNAFGQGTKLTVL
# B3: MYT9507 (antibody, V domains shown)
# VH: EVQLVESGGGLVQPGGSLRLSCTASGFSFSSSHWICWVRQAPGKGLEWVGCIYAGSIGSTYYASWAKGRFTISRDTSKNTVYLQMNSLRAEDTAVYYCARAPNDIYNYYFNLWGQGTLVTVSS
# VL: EIVMTQSPSTLSASVGDRVIITCDASENIYNYLAWYQQKPGKAPKLLIYYASTLASGVPSRFSGSGSGAEFTLTISSLQPDDFATYYCQSGYVSKSSTFGQGTKLTVL
# B4: MYT9523 (antibody, V domains shown)
# VH: B3 VH
# VL: B3 VL with D24Q, A55D
# Molecular target: T1, LRRC15 on the surface of LRRC15+ cells …
# Assay: cell-based or functional assay
"Internalization in SAOS-2 cells (10 nM, 24 hours), FOB = fold over background (IgG control)","Internalization in SAOS-2 cells (10 nM, 24 hours), FOS = fold over samrotamab",Binder
2.68 fold over background (IgG control),1.04 fold over samrotamab,B1
2.62 fold over background (IgG control),1 fold over samrotamab,B2
3.16 fold over background (IgG control),1.33 fold over samrotamab,B3
3.23 fold over background (IgG control),1.37 fold over samrotamab,B4

# Molecular target: T1, LRRC15 on the surface of LRRC15+ cells …
# Assay: cell-based or functional assay
# Remark: another data set of the same source
"Internalization in U87MG cells (10 nM, 24 hours), FOB = fold over background (IgG control)","Internalization in U87MG cells (10 nM, 24 hours), FOS = fold over samrotamab",Binder
2.76 fold over background (IgG control),2.06 fold over samrotamab,B1
2.25 fold over background (IgG control),1.45 fold over samrotamab,B2
3.58 fold over background (IgG control),3.01 fold over samrotamab,B3
3.05 fold over background (IgG control),2.4 fold over samrotamab,B4
